Source: article PMC3950950, “Fluorescent sensors for activity and regulation of the nitrate transceptor CHL1/NRT1.1 and oligopeptide transporters” (eLife, 2014)

Substrate: O=[N+]([O-])O
Test: fluorescence response (donor quenching) of sensor in yeast, plate reader
Format: cell-based, Arabidopsis thaliana
Conditions: 50 mM MES pH 5.5, monophasic low-affinity response, excitation 428 nm

B1: NiTrac1 (CHL1/NRT1.1/NPF6.3 fusion) (Arabidopsis thaliana; T101A) (protein)
chain: MSLPETKSDDILLDAWDFQGRPADRSKTGGWASAAMILCIEAVERLTTLGIGVNLVTYLTGTMHLGNATAANTVTNFLGTSFMLCLLGGFIADTFLGRYLAIAIFAAIQATGVSILTLSTIIPGLRPPRCNPTTSSHCEQASGIQLTVLYLALYLTALGTGGVKASVSGFGSDQFDETEPKERSKMTYFFNRFFFCINVGSLLAVTVLVYVQDDVGRKWGYGICAFAIVLALSVFLAGTNRYRFKKLIGSPMTQVAAVIVAAWRNRKLELPADPSYLYDVDDIIAAEGSMKGKQKLPHTEQFRSLDKAAIRDQEAGVTSNVFNKWTLSTLTDVEEVKQIVRMLPIWATCILFWTVHAQLTTLSVAQSETLDRSIGSFEIPPASMAVFYVGGLLLTTAVYDRVAIRLCKKLFNYPHGLRPLQRIGLGLFFGSMAMAVAALVELKRLRTAHAHGPTVKTLPLGFYLLIPQYLIVGIGEALIYTGQLDFFLRECPKGMKGMSTGLLLSTLALGFFFSSVLVTIVEKFTGKAHPWIADDLNKGRLYNFYWLVAVLVALNFLIFLVFSKWYVYKEKRLAEVGIELDDEPSIPMGH
notes: full-length ORF between N-terminal Aphrodite t9 (yellow FP) and C-terminal mCerulean (pDRFlip30); expressed in yeast BJ5465; intact cells
Q: How did the Km turn out when B1 was run?
A: 3.5 ± 3.7 mM
